B1: MGC2 (antibody)
VH: EVQLVESGGGLVQPGGSLRLSCAASGFTFSNFWMGWVRQTPGKGLEWVANIKEDGSEKYYVDSVRGRFTISRDSAKNSLYLQMNSLRAEDTAVYYCVRERFCSNHIHKEEHLPRPSISPEPGTVITLGSHVTFVCRGPVGVQTFRLEKDSRSTYNDTEDVSQPSPSESEARFRIDSVSEGYAGLYRCLYYKPPKWSEQSDYLELLVKGDDVTWALYPSCGGDGEASDYNMDVWGKGTTVTVSS
VL: DIQMTQSPSTLSASVGDRVTISCRASQRFSGWLAWYQQKPGKAPNLLIYKASPLAGGGPSRFSGSGSGTDFTLTISSLQPDDSATYYCQHYSNYSYTFGQGTKLEIR
B2: MGC37 (antibody)
VH: EVQLVESGGDLVQPGGSLRLSCAASGFTFRNYWMSWVRQTPGKGLEWVANIRQDGSEKYYVDSVKGRFTISRDNAKNLLYLQMNSLRAEDTAVYYCVRDKFCSDENHMHVADDLPRPSISPEPGTVIPLGSHVTFVCRGPVGVQTFRLEKDRRSTYNDTEDVSQPSPSESEARFRIDSVTEGNAGLYRCVYYKPPKWSDQSDFLELLVKGEDVTWALFPHCGADGEDSDYYMDVWGKGTTVTVSS
VL: DIQLTQSPSTLSASVGDRVTISCRASQRLSRSLAWYQQRPRKAPNLLIYKASPLEIGGPSRFTGSGSGTEFTLTISSLQPDDSATYYCQQYSNYSYSFGQGTKLEIR
B3: MGD35 (antibody)
VH: QVQLQESGPGLVKPSGTLSLTCAVSGASISSINWWSWVRQTPEKGLEWIGQIHHNGSTNYNPSLKSRVAISVDKSKNQFSLKLTSFTAADTAVYYCATASSLKSQRDTNLPRPSLSAEPGTVIPLGSPVTFVCRGPVGVHTFRLERAGRSTYNDTEDVSHPSPSESEARFRIDSVSEGNAGPYRCVYYKSSKWSEESYCLDLLVKTEDVTWARPQPQLDPRACPQGDLRISTDFYYMDVWGKGTTVTVSS
VL: AIRMTQSPSSLSASTGDRVTITCRTSQAIGTYLAWYQQNPGKAPNLLIYNASTLQSGVPSRFSASGSGTDFTLTISGLQSDDFVTYFCQHYYNYPPAFGQGTRLEIQ
B4: MGC1 (antibody)
VH: EVQLVESGGGLVQPGGSLRLSCVASGFNFRKSWMGWVRQAPGKGLEWVANIREDGSESFYADSVKGRFTVSRDNAKKSLYLHINSLRAEDTAVYYCARDRFCNDDEIHRHGQEDLPRPSISAAEGTVIPLGSHVTFVCRGPVGVQTFRLEKDSRSIYNDTENVSQPSPSESEARFRIDSVSEGNAGLYRCVYYKAPKWSAQSDYLELLVKGQEVTWALFTSCGGDGEEPDYDMDVRGKGTTVTVSS
VL: DIVMTQSPDSLAVSLGERATINCKSSQSVLYRSKNKNYLAWFQQKPGQPPKVLIYSTSTRASGVPDRFTGSGSGTDFTLTISSLQAEDVAVYYCLQYYITPYTFGQGTKLEIK
B5: MGC35 (antibody)
VH: EVQLVESGGGLVQPGGSLRLSCEASGFNSRSYWMTWVRQAPGKGLEWVASINQDATEKNYVDSVKGRFTISRDTAKNSLYLQMNSLRAEDTAVYYCARDRFCGGESHLHGQEDLPRPSISAEPGSVIPLGSLVTFVCRGPVGVHTFRLERGWTYNDTEDVSQAGPSESEARFRMDSVREGNAGLYRCIYYKPPKWSEQSAYLELRVKGGDVTWALLTYCGGDGEESDYPMDVWGKGTTVTVSS
VL: QTVVTQEPSLTVSPGGTVTLTCASSTGPVTSAYYPNWFQQKPGQAPRSLIYNINKKHSWTPDRFSGSLLGGKAALTLSGVQPEDEADYYCLLSCGGAQPWVFGGGTKLTVQ
B6: MGC36 (antibody)
VH: EVVLVESGGGLVQPGGSLRLSCEASGFNSRSYWMTWVRQAPGKGLEWVASINQDGTEKNYVDSVKGRFTISRDSAKNSLYLQMSSLRADDTAVYYCARDRFCGGESHLHGEEDLPRPSISAEPDTVIPLGSHVTFVCRGPVGVHTFRLERGWRYNDTEDVSQAGPSESEARFRIDSVREGNAGLYRCIYYIAPKWSEQSDYLELRVKGGDVTWALLTYCGGDGEESDYPMDVWGKGTTVTVSS
VL: QTVVTQEPSLTVSPGGTVTLTCASSTGPVTSAYYPNWFQQKPGQAPRSLIYSINKKHSWTPARFSGSLLGGKAALTLSGVQPEDEADYYCLLSCGGAQPWVFGGGTKLTVQ
B7: MGD30 (antibody)
VH: QVQLQESGPGLVKPSETLSLSCAVTGGSITSSKWWTWVRQGPDKGLEWIGKIYHNGTTNYNPSLKSRVAMSVDKSRNQFSLRLTSVTAADTALYYCATASPFKSHHRTTEKLPRPSISAEPGTVIPLGSRVTFVCRGPVGVQTFRLERETSFTYNDTEDVSQVSPSESEARFRIDSVSEGYAGPYRCVYYKAPKWSEQSDYLDLLVKGEDVTWALTQPQLDPRACPQGDLRMSTDIYCMDVWGKGTTVTVSS
VL: AIRLTQSPSSLSASIGDRVTITCRASQDISTFLAWYQQESGKAPRLLIFAASTLQTGVPSRFSGSGSGTDFTLTISGLQSEDFATYYCQQYYCFPPDFGQGTRLDIK
B8: MGD33 (antibody)
VH: HVQLQESGPGLVKPSETLSLSCAVTGGSITSSKWWTWVRQGPDKGLEWIGKIYHNGTTNYNPSLKSRVAMSVDKSKNQFSLRLTSVTAADTAVYYCATASPFKSHHRTTEKLPRPSISAEPGTVIPLGSRVTFVCRGPVGVQTFRLERETRSTYNDTEDVSQVSPSESEARFRIDSVSEGYAGPYRCVYYKAPKWSEQSDYLDLLVKGEDVTWALTQPQLDPRACPQGDLRMSTDIYCMDVWGKGTTVTVSS
VL: AIRLTQSPSSLSASIGDRVTITCRASQDISTYLAWYQQESGKAPRLLIFAASSLQTGVPSRFSGSGSGTDFTLTISGLQSEDFATYYCQQYYCFPPDFGQGTRLDIK
B9: MGD39 (antibody)
VH: QVRLQESGPGLVKPSGTLSLTCTVSGGSISAYRWWSWVRQAPGKGLEWIGQVYNDGNTNYNPSLKGRVAMSVDKSKNRFSLRLASVTAADTAVYYCATISPLRPQSDTDDLPRPSISAEPGTVIPLGSHVTFVCRGPIGVQTFRLERERRSLYSDTEDVSQVSPFASEARFRIDSVSEGNAGPYRCIYYKDRKWSDQSDYLELLVKGEDVTWALPQSQLAPRACPQEELNISTDIFSMNVWGKGTTVTVSS
VL: AIRMTQSPASLSASIGDRVTITCRTSHDVGNYLDWYQQKPGKAPKLLIHGASTLQTGVPSRFSGSGAGTDFTLNITCLQSGDFAMYYCQQYYSSPPGFGQGTRLEIK
B10: MGD34 (antibody)
VH: EVQLVESGPGLMKTSGTLSLTCAVSGDYVNTNRRWSWVRQAPGKGLEWIGEVHQSGRTNYNPSLKSRVTISVDKSKNQFSLKVDSVTAADTAVYYCARASPLKSQRDTEDLPRPSISAEPGTVIPLGSHVTFVCRGPVGVQTFRLERERNYLYSDTEDVSQTSPSESEARFRIDSVNAGNAGLFRCIYYKSRKWSEQSDYLELVVKGEDVTWALSQSQVDPRACPQGELPISTDIYYVDVWGNGTTFTVSS
VL: AIRMTQSPSSLSASPGDKVSITCRASQHINDSLAWFQQRPGKAPKLLIYGASNLHSGVPSRFSGTGSGTDFTLTITGLQSEDFATYFCQQCNCFPPDFGQGTRLEIK
B11: MGD23 (antibody)
VH: QVQLQESGPGLVKPSGTLSLTCSVSGGSISSNKWWSWVRQSPGKGLEWIGEVYQTGITNYNPSLKGRVTMSVDKSKNQFSLRLTSVTAADTAVYYCATISQLRPQGDTEDLPRPSLSAEPGTVIPLGSHVTFVCRGPAGVETFRLERESRFTYNDTEDVSQASPSESEARFRIDSVSEGNAGPYRCLYYKARKWSDQSDYLELLVKGADVTWALPQSQLAPRACPQGELRISTDVFSMNVWGNGTTVTVSS
VL: AVRVTQSPTSLSASTGDRVTITCRTSQYVGNYLDWYQQKPGKAPKLLIHGVSTLQNGVPSRFSGSASGTDFTLNITCLQSEDSATYYCQQYYTSPPDFGQGTRLEIK

What was measured:
Experiment in all cases: flow cytometry, staining of IEs
[1] = target: erythrocytes infected with P. falciparum field isolate 11014
[2] = target: erythrocytes infected with P. falciparum field isolate 11019
[3] = target: erythrocytes infected with P. falciparum field isolate 10936
[4] = target: erythrocytes infected with P. falciparum field isolate 9775
[5] = target: erythrocytes infected with P. falciparum field isolate 10975
[6] = target: erythrocytes infected with P. falciparum field isolate 9605
[7] = target: erythrocytes infected with P. falciparum field isolate 9106
[8] = target: erythrocytes infected with P. falciparum field isolate 9215

Row | Binder | % parasite recognition [1] | % parasite recognition [2] | % parasite recognition [3] | % parasite recognition [4] | % parasite recognition [5] | % parasite recognition [6] | % parasite recognition [7] | % parasite recognition [8]
1 | B1 | 1.5% | 11.9% | 2.8% | 2.9% | 2.6% | 22.4% | 5.6% | 28.8%
2 | B2 | 5.8% | 51.8% | 4.1% | 4% | 7.5% | 22.2% | 7.2% | 9.9%
3 | B3 |  | 6.3% |  |  |  | 3.6% | 6.1% | 
4 | B4 | 3.4% | 32.7% | 2% | 5.7% | 1.4% | 19.5% | 6.7% | 14.9%
5 | B5 | 3.6% | 3.2% | 2.5% | 7.2% | 7.4% | 15.9% | 6.5% | 19.5%
6 | B6 | 4.6% | 17.9% | 2.7% | 6.2% | 8.6% | 17.9% | 6.9% | 12.4%
7 | B7 | 3.4% | 4.4% | 2.6% | 5.6% | 6.5% | 7.4% | 4.2% | 9%
8 | B8 | 7% | 9.6% | 6.1% | 8.5% | 14.2% | 12.3% | 4.3% | 15.5%
9 | B9 | 11.5% | 43% | 10.5% | 15% | 14.1% | 31.7% | 13.7% | 37.4%
10 | B10 | 13% | 46.6% | 8.1% | 16% | 11.2% | 28.4% | 5% | 35.7%
11 | B11 | 6.3% | 7.8% | 4.3% | 7.3% | 3.4% | 14.7% | 5.7% | 11.4%
